Several values for one entry are separate records, joined by “and”; a condition that tells them apart may be missing. Identical values can stand only once.
T1: rhodanese from bovine liver (bovine, UniProt P00586 1-297)
T1 construct: rhodanese (thiosulfate sulfurtransferase) from bovine liver; called a monomeric enzyme of 33 kDa; In the assays it is heat denatured (50 °C) and aggregating; source: bought: Merck KGaA (rhodanese from bovine liver II)
T1 sequence (looked up): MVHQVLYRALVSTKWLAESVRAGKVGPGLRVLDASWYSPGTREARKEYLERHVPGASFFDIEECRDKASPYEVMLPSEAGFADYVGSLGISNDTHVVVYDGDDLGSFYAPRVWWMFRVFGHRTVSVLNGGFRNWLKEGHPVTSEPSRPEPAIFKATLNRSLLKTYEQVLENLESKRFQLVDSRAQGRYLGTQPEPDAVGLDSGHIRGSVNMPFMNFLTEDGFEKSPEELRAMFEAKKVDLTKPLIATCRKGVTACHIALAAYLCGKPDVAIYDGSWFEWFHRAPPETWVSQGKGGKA


Assays:
[1] = target: the molecule itself; test: SEC; purified HSP22rec (100 µg) at 20 °C; Superdex 200 10/300GL, 0.25 mL/min, 20 mM Tris pH 7.4, 1 mM EDTA, 150 mM NaCl; masses from a calibration curve with standard proteins
[2] = target: T1, rhodanese from bovine liver; test: co-sedimentation; heat aggregation assay with purified proteins: 8 to 25 µg of proteins in 50 µL MOPS 50 mM pH 7.5, DTT 1 mM, EDTA 1 mM, heated 20 min at 50 °C, 15 min on ice, centrifuged 30 min at 20,000 g; supernatants and pellets by SDS-PAGE; 1:1 mass ratio or molar ratios up to 9:1; details: both partners purified
[3] = target: the molecule itself; test: SEC; pea seed mitochondrial soluble proteins (7 mg) separated at 20 °C; fractions analysed by Western blot with the anti-HSP22 Cterm antibody

binding result [2] | Binder | stoichiometry N [1] | stoichiometry N [3]
binds | recombinant HSP22 (HSP22rec), mature mitochondrial small heat shock protein HSP22 from pea (natural protein, UniProt P46254 32-202, looked up, mature HSP22 of pea, amplified from a cDNA encoding the HSP22 precursor (UniProtKB P46254); 19.5 kDa and 170 residues stated; Cloned by NdeI/BamHI into pET3a, so an added initiator methionine is likely (surmise); No tag is mentioned; source: E. coli B834 pLys (pET3a, pET-HSP22), purified (anion exchange HitrapQ, two SEC steps on Superdex 200); also unpurified in soluble extract of the …) FNTNAMRQYDQHSDDRNVDVYRHSFPRTRRDDLLLSDVFDPFSPPRSLSQVLNMVDLLTDNPVLSAASRRGWDARETEDALFLRLDMPGLGKEDVKISVEQNTLTIKGEEGAKESEEKEKSGRRFSSRIDLPEKLYKIDVIKAEMKNGVLKVTVPKMKEEERNNVINVKVD | 20 mer and 12 mer and 8 mer | –
– | native HSP22 of pea seed mitochondria (natural protein, UniProt P46254 32-202, looked up, mitochondrial small heat shock protein HSP22 of pea, native protein in the soluble (matrix) extract of mitochondria from 22 h imbibed pea seeds; Detected by Western blot with anti-HSP22 peptide antibodies; source: endogenous, soluble protein extract of pea seed mitochondria) FNTNAMRQYDQHSDDRNVDVYRHSFPRTRRDDLLLSDVFDPFSPPRSLSQVLNMVDLLTDNPVLSAASRRGWDARETEDALFLRLDMPGLGKEDVKISVEQNTLTIKGEEGAKESEEKEKSGRRFSSRIDLPEKLYKIDVIKAEMKNGVLKVTVPKMKEEERNNVINVKVD | – | 2 mer and 3 mer

Source: article PMC6981728, “The Mitochondrial Small Heat Shock Protein HSP22 from Pea is a Thermosoluble Chaperone Prone to Co-Precipitate with Unfolding Client Proteins” (International Journal of Molecular Sciences, 2019)
